Assay [1] deals with T1, Amyloid Beta (1-40) from Biosource (UniProt P05067 672-711).
T1 construct: domain: Amyloid Beta (1-40); Immobilized on Maxisorb plates at 5 micrograms per well; also called Abeta; A-beta
The assay is described as follows: plate ELISA, immobilized ligand, dilutions of fusion protein, absorbance at 405 nm. The protocol:
(§1) Known RAGE ligands were coated onto the surface of Maxisorb plates at a concentration of 5 micrograms per well. Plates were incubated at 4° C. overnight. Following ligand incubation, plates were aspirated and a blocking buffer of 1% BSA in 50 mM imidizole buffer (pH 7.2) was added to the plates for 1 hour at room temperature. The plates were then aspirated and/or washed with wash buffer (20 mM Imidizole, 150 mM NaCl, 0.05% Tween-20, 5 mM CaCl₂ and 5 mM MgCl₂, pH 7.2). […] The RAGE fusion protein was added at increasing dilutions of the initial sample. The RAGE fusion protein was allowed to incubate with the immobilized ligand at 37° C. for one hour after which the plate was washed and assayed for binding of the RAGE fusion protein. Binding was detected by the addition of an immunodetection complex containing a monoclonal mouse anti-human IgG1 diluted 1:11,000 to a final assay concentration (FAC) of 21 ng/100 μL, a biotinylated goat anti-mouse IgG diluted 1:500, to a FAC of […], and an avidin-linked alkaline phosphatase. […] Binding of the complex to the immobilized RAGE fusion protein was quantified by measuring conversion of PNPP to para-nitrophenol (PNP) which was measured spectrophotometrically at 405 nm.
In general terms: An ELISA detects its analyte on a solid surface through an enzyme-linked reagent.

For assay [2], the target named is T2, BSA (UniProt P02769 25-607).
T2 construct: Negative control coating; also called BSA coating alone; BSA+wash
T2 sequence (P02769 25-607 limits assumed): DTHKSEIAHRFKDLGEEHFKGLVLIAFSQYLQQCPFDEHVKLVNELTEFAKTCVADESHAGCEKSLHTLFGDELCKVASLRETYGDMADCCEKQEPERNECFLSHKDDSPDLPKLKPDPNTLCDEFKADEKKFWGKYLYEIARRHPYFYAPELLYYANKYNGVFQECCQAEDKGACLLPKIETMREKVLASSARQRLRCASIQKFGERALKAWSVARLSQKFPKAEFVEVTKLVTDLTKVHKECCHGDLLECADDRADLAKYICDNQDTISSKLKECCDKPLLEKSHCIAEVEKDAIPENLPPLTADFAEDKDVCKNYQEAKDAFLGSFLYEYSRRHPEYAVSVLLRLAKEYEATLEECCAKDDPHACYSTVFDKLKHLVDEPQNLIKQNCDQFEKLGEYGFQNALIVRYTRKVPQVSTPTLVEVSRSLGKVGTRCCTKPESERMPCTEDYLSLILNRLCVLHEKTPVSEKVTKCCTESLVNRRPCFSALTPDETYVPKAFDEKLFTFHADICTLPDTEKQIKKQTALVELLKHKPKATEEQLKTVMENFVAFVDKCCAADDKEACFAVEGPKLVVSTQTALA
As to the kind of experiment: plate ELISA, BSA-only coating, detection with anti-human IgG1 complex, absorbance at 405 nm. On the procedure: as §1

Assay [3] has as its target T1, Amyloid Beta (1-40) from Biosource. As to the kind of experiment: plate assay, immobilized ligand (A beta=Amyloid beta 1-40), fusion protein 0 to 360 nM, anti-IgG polyclonal antibody with alkaline phosphatase. On the procedure: The ligands are immobilized on a microtiter plate and incubated in the presence of increasing concentrations of RAGE fusion protein from 0 to 360 nM. The RAGE fusion protein-ligand interaction is detected using a polyclonal antibody conjugated with alkaline phosphatase that is specific for the IgG portion of the fusion chimera. […] HMG1B=Ampoterin, CML=Carboxymethyl Lysine, A beta=Amyloid beta 1-40.

T1 sequence (P05067 672-711 limits assumed): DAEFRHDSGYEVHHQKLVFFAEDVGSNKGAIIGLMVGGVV

B1: RAGE fusion protein TTP-3000 (Fc fusion)
chain: QNITARIGEPLVLKCKGAPKKPPQRLEWKLNTGRTEAWKVLSPQGGGPWDSVARVLPNGSLFLPAVGIQDEGIFRCQAMNRNGKETKSNYRVRVYQIPGKPEIVDSASELTAGPSVFLFPPKPKDTLMISRTPEVTCVVVDVSHEDPEVKFNWYVDGVEVHNAKTKPREEQYNSTYRVVSVLTVLHQDWLNGKEYKCKVSNKALPAPIEKTISKAKGQPREPQVYTLPPSRDELTKNQVSLTCLVKGFYPSDIAVEWESNGQPENNYKTTPPVLDSDGSFFLYSKLTVDKSRWQQGNVFSCSVMHEALHNHYTQKSLSLSPGK
notes: also called TT3; three domain RAGE fusion protein
With B1, the binding result is reported as “binds” in assay [1] and “no binding” in assay [2].

B2: RAGE fusion protein TTP-4000 (Fc fusion)
chain: QNITARIGEPLVLKCKGAPKKPPQRLEWKLNTGRTEAWKVLSPQGGGPWDSVARVLPNGSLFLPAVGIQDEGIFRCQAMNRNGKETKSNYRVRVYQIPGKPEIVDSASELTAGVPNKVGTCVSEGSYPAGTLSWHLDGKPLVPNEKGVSVKEQTRRHPETGLFTLQSELMVTPARGGDPRPTFSCSFSPGLPRHRALRTAPIQPRVWEPVPLEEVQLVVEPEGGAVAPPSVFLFPPKPKDTLMISRTPEVTCVVVDVSHEDPEVKFNWYVDGVEVHNAKTKPREEQYNSTYRVVSVLTVLHQDWLNGKEYKCKVSNKALPAPIEKTISKAKGQPREPQVYTLPPSRDELTKNQVSLTCLVKGFYPSDIAVEWESNGQPENNYKTTPPVLDSDGSFFLYSKLTVDKSRWQQGNVFSCSVMHEALHNHYTQKSLSLSPGK
modifications: N-terminal residue glutamine (Q) or pyroglutamic acid (pE) or a mixture thereof; glycosylation sites at N2 and N288 (numbering of SEQ ID NO: 34 or 56); C-terminal residue of CH3 may be cleaved off
notes: No immunoglobulin hinge; Made in CHO cells, purified on Protein A; also called TT4; four domain RAGE fusion protein
Regarding B2, the binding result in assay [3] is “binds”; in assay [2] it was “no binding”.

(Values after patent US20090004190A1 (published 2009).)
